One assay has as its system thymocytes. Description: Proliferation of anti-CD3 activated thymocytes in serum-free ITLB medium. Type of assay: cell-based, BALB/c mouse. The note with it: for ability of cytokine to replace retinol: absence of retinol; for growth-stimulating effect, anti-CD3, no Retinol / growth-stimulating effect, anti-CD3, 10^-6 M Retinol: 3 days, IL-1 10, IL-2 2, IL-4 5, IL-6 5, IFN-gamma 40, TNF-alpha 12, IL-2 + IL-4 2/5 U/ml; for growth-stimulating effect, anti-CD3, 10^-6 M Retinol: with 10^-6 M retinol (head), Retinol: stimulating agent none. The procedure: FIG. 14A: Purified BALB/c thymocytes were activated with immobilized anti-CD3e antibody and cultivated for four days in ITLB medium with or without retinol (3×10^-6 M), 14HRR (6×10^-7 M) (fresh 14HRR was added every 12 hours), human serum (3%) or FCS (10%) at the cellular densities shown. Proliferation was assayed by tritiated thymidine incorporation into cellular DNA.
FIG. 14B: BALB/c thymocytes (10^6 /ml) were added to microtiter plates coated with titrated amounts of anti-CD3e antibody with […] retinol or without, as indicated. Proliferation was measured in hexaduplicate wells on day 3 by ^3 H thymidine incorporation assay.
Purified thymocytes (5×10^5 cells/well) were stimulated by TCR crosslinking with immobilized anti-CD3e antibody (FIG. 15A) or 0.4 μg/ml Con A (FIG. 15B) in serum-free ITLB medium. The indicated amounts of retinoids were added either once at the beginning of the experiment (marked as "1×") or every 12 hours thereafter (marked as "6×"). DNA synthesis was measured after 72 hours by tritiated thymidine uptake as described.
Purified thymocytes (10^5 cells/well) were activated with anti-CD3 antibody in ITLB medium with or without retinol (3×10^-6 M), 14HRR (6×10^-7, added every 12 hours or human serum (3%)). DNA synthesis was measured daily by a 4 hour pulse of tritiated thymidine.
Thymocytes (5×10^4 /well) were activated by immobilized anti-CD3 mAb in medium ITLB. Retinol (2×10^-6 M) was added at initiation of culture, or delayed by 12 hours and 24 hours, respectively, or omitted altogether. ^3 H thymidine pulses of 4 hours were used to measure DNA synthesis of hexaduplicate wells.
Thymuses of 3 to 6-week-old BALB/c mice were teased in serum-free RPMI medium supplemented with 1% BSA, 10^-6 M linoleic acid and antibiotics. Depletion of accessory cells was achieved by two cycles of complement-dependent lysis with a mixture of anti-IA^d (5 μg/ml) and anti-IE^d (1:500 diluted ascites fluid). Briefly, cells were incubated on ice for 30 minutes with Ia antibodies, spun down, resuspended in 1:40 diluted rabbit complement, and incubated at 37° C. for 45 minutes. Incubations and two subsequent washes were carried out with RPMI medium containing 1% BSA. Cell viability was evaluated by trypan blue dye exclusion. To determine the extent of depletion of accessory cells, samples were stained with FITC-conjugated anti-Fc receptor antibody and analyzed by flow cytometry on a FACScan instrument (Becton Dickinson).
Cells were cultured in serum-free medium, referred to as ITLB, containing RPMI 1640 supplemented with 8×10^-7 M insulin (5 μg/ml), 7×10^-8 M transferrin (5 μg/ml), 2×10^-6 M linoleic acid, 2×10^-6 M delipidated BSA (0.12 mg/ml), 2 mM L-glutamine, 1 mM sodium pyruvate and antibiotics. They were seeded into 96-well flat-bottom plates at varying cellular densities in a final volume of 100 μl. In control experiments, cells were cultured in medium containing 10% FCS or 3% human serum and 5×10^-5 M 2ME. T cells and thymocytes were activated with immobilized, purified anti-mAb CD3e or by the addition of Con A in the presence or absence of different concentrations of retinoids. Unless indicated otherwise, retinoids were replenished every 12 hours to maintain a reasonably constant concentration of these labile compounds in culture. […] Cultures were carried out in duplicate. Plates were incubated at 37° C. in a humidified 5% CO2 atmosphere. Cellular proliferation was determined by [^3 H] thymidine uptake (0.5 uCi/well; New England Nuclear, Boston, Mass.) after the incubation times indicated for each experiment with a 4 hour labeling pulse.

In a further assay the test system is T cells. The assay is described as follows: T cell activation and proliferation, retinol cofactor requirement. It counts as cell-based, murine. The procedure:
They were seeded into 96-well flat-bottom plates at varying cellular densities in a final volume of 100 μl. In control experiments, cells were cultured in medium containing 10% FCS or 3% human serum and 5×10^-5 M 2ME. […] Cultures were carried out in duplicate. Plates were incubated at 37° C. in a humidified 5% CO2 atmosphere. Cellular proliferation was determined by [^3 H] thymidine uptake (0.5 uCi/well; New England Nuclear, Boston, Mass.) after the incubation times indicated for each experiment with a 4 hour labeling pulse. Cells were harvested onto glass filter and [^3 H]TdR incorporation was determined by liquid scintillation counting. The data presented are the means of duplicate or six replicate cultures. The restriction to duplicate measurements was necessary to conserve scarce 14HRR. […] Each experiment was repeated at least twice.

Experimental findings from patent publication US5814612A, “Retinol derivatives and uses thereof” (priority 1992, dated 1998) are described below.

Entries after “also recorded” stand apart in the source; their conditions may differ.

Regarding `CC1=C(/C=C/C(C)=C/C=C/C(C)=C\CO)C(C)(C)CCC1` [13-cis-retinol], the “effectiveness relative to retinol” value with thymocytes (anti-CD3, 14HRR at 12 hour intervals) is “equally effective as all-trans retinol”. For the same molecule, the “ability to substitute for retinol in T cell activation (words)” value (“ability to substitute for retinol” for short) with T cells is given as “can substitute for retinal”.
As for IL-6: hrIL-6, in the assay with thymocytes, the “ability of cytokine to replace retinol” value was “None of the four interleukins, IL-1, IL-2, IL-4 or IL-6, was capable of overcoming the requirement for retinal; also recorded: none of the interleukins tested (IL-1, IL-2, IL-4 and IL-6) nor TNF-alpha are substitutes for retinol”; the “growth-stimulating effect, anti-CD3, no Retinol” value is 1,005 ± 815 CPM; the “growth-stimulating effect, anti-CD3, 10^-6 M Retinol” value is 130,590 ± 25,803 CPM.
Turning to TNF-alpha, in the assay with thymocytes, the “ability of cytokine to replace retinol” value was “none of the interleukins tested (IL-1, IL-2, IL-4 and IL-6) nor TNF-alpha are substitutes for retinol”; the “growth-stimulating effect, anti-CD3, no Retinol” value amounted to 464 ± 95 CPM; the “growth-stimulating effect, anti-CD3, 10^-6 M Retinol” value is reported as 122,905 ± 11,577 CPM. Further, the “ability of cytokine to replace retinol” value in the assay on thymocytes (listed as TNF-α) is “does not”. Also, the “ability to substitute for retinol” value in the assay with T cells was “cannot be satisfied by retinoic acid or interleukins 1, 2, 4 and 6, and TNF-alpha”.

B1: IL-4: murine rIL-4 (protein, UniProt P07750 21-140, looked up)
Interleukin-4: HIHGCDKNHLREIIGILNEVTGEGTPCTEMDVPNVLTATKNTTESELVCRASKVLRIFYLKHGKTPCLKKNSSVLMELQRLFRAFRCLDSSISCTMNESKSTSLKDFLESLKSIMQMDYS
Take B1: in the assay on thymocytes, the “ability of cytokine to replace retinol” value was “None of the four interleukins, IL-1, IL-2, IL-4 or IL-6, was capable of overcoming the requirement for retinal; also recorded: none of the interleukins tested (IL-1, IL-2, IL-4 and IL-6) nor TNF-alpha are substitutes for retinol”; the “growth-stimulating effect, anti-CD3, no Retinol” value stood at 991 ± 105 CPM; the “growth-stimulating effect, anti-CD3, 10^-6 M Retinol” value is 115,849 ± 20,630 CPM.

B2: IL-1: Human recombinant IL-1-α (protein, UniProt P01583 113-271, looked up)
Interleukin-1 alpha: SAPFSFLSNVKYNFMRIIKYEFILNDALNQSIIRANDQYLTAAALHNLDEAVKFDMGAYKSSKDDAKITVILRISKTQLYVTAQDEDQPVLLKEMPEIPKTITGSETNLLFFWETHGTKNYFTSVAHPNLFIATKQDYWVCLAGGPPSITDFQILENQA
Turning to B2, in the assay on thymocytes, the “ability of cytokine to replace retinol” value was “None of the four interleukins, IL-1, IL-2, IL-4 or IL-6, was capable of overcoming the requirement for retinal; also recorded: none of the interleukins tested (IL-1, IL-2, IL-4 and IL-6) nor TNF-alpha are substitutes for retinol”; the “growth-stimulating effect, anti-CD3, no Retinol” value was determined as 959 ± 30 CPM; the “growth-stimulating effect, anti-CD3, 10^-6 M Retinol” value is given as 118,924 ± 3,051 CPM.

B3: IFN-gamma: mouse recombinant IFN-gamma (protein, UniProt P01580 23-155, looked up)
Interferon gamma: HGTVIESLESLNNYFNSSGIDVEEKSLFLDIWRNWQKDGDMKILQSQIISFYLRLFEVLKDNQAISNNISVIESHLITTFFSNSKAKKDAFMSIAKFEVNNPQVQRQAFNELIRVVHQLLPESSLRKRKRSRC
As to B3, in the assay on thymocytes, the “ability of cytokine to replace retinol” value is “can circumvent the retinol requirement and initiate durable proliferation in the absence of retinol or 14HRR”; the “growth-stimulating effect, anti-CD3, no Retinol” value is reported as 81,876 ± 11,868 CPM; the “growth-stimulating effect, anti-CD3, 10^-6 M Retinol” value is on record as 220,359 ± 27,726 CPM; the “effect of cytokine combined with retinol” value is “strong additive effects”. Moreover, the “ability of cytokine to replace retinol” value with thymocytes (listed as interferon-gamma) was “can sustain thymocyte proliferation in the absence of retinol; also recorded: quite efficient in anti-CD3-mediated activation in the absence of retinol”. Besides, the “effect of cytokine combined with retinol” value with thymocytes (listed as Interferon-gamma) is reported as “clear additive effect with retinol”. For the same molecule, the “ability to substitute for retinol” value with T cells is reported as “can substitute for retinol”.
